The target of this test is native human AXL on non-transfected human cell lines (A-431, A-549, HeLa, MDA-MB-231, NCI-H1299) (human) (UniProt P30530). The test can be described thus: cell-based or functional assay.
Sequence of native human AXL on non-transfected human cell lines (A-431, A-549, HeLa, MDA-MB-231, NCI-H1299) (human) (P30530 26-894 limits assumed): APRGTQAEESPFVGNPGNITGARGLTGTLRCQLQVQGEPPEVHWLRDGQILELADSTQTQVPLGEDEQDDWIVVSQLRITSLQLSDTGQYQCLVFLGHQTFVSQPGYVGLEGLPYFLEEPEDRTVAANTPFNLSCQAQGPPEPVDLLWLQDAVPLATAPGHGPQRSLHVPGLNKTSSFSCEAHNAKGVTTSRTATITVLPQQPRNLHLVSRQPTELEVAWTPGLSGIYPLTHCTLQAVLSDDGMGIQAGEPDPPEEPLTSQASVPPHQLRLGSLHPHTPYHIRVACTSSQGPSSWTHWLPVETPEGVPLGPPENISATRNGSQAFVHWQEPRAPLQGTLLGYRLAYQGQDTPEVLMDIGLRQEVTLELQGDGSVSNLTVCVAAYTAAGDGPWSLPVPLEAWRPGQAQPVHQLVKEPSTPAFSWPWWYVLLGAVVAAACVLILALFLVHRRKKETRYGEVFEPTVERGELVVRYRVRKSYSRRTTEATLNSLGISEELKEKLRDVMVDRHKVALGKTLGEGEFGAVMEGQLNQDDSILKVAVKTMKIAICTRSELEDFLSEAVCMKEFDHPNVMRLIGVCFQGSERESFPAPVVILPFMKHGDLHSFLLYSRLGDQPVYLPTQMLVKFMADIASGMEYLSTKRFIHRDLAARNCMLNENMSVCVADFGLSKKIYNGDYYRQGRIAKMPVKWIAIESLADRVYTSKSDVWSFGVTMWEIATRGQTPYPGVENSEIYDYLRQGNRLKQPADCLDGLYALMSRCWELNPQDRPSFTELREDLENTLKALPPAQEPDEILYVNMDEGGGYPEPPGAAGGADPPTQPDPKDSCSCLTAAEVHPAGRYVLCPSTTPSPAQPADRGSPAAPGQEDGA

With isotype control (Example 5) (antibody), the AKT phosphorylation in H1299 cells without Gas6; APC-A Geometric mean; p-AKT APC + isotype control came out at 4380, the AKT phosphorylation in H1299 cells without Gas6; Median: APC-A; p-AKT APC + isotype control was 4430, the ERK phosphorylation in H1299 cells without Gas6; APC-A Geometric mean; p-ERK A647 + isotype control came to 965 and the ERK phosphorylation in H1299 cells without Gas6; Median: APC-A; p-ERK A647 + isotype control stood at 274. The Gas6 induced AKT phosphorylation in H1299 cells; APC-A Geometric mean; p-AKT APC + isotype control + Gas6 is 8380, the Gas6 induced AKT phosphorylation in H1299 cells; Median: APC-A; p-AKT APC + isotype control + Gas6 amounted to 9120, the Gas6 induced ERK phosphorylation in H1299 cells; APC-A Geometric mean; p-ERK A647 + isotype control + Gas6 amounted to 1320 and the Gas6 induced ERK phosphorylation in H1299 cells; Median: APC-A; p-ERK A647 + isotype control + Gas6 amounted to 1020.

For the origin of these results see patent publication US20260042848A1.
